According to patent US20220228157A1, “GENE EDITING IN DIVERSE BACTERIA” (priority 2019, published 2022):
Substitutions are numbered along the chain they refer to. Names may count otherwise.

B1: L1SSB C7:EcSSB (protein)
chain: MINNVVLVGRITRDPELRYTPQNQAVATFSLAVNRQFKNANGEREADFINCVIWRQQAENLANWAKKGALIGVTGRIQTRNYENQQGQRVYVTEVVADSFQMLESRSARDGMGGGASAGSYSAPSQSTNNTPRPQTNNNSATPNFGRDADPFGSSPMEIMEIFDDDIPF
B2: L1SSB C7:MsSSB (protein)
chain: B1 chain with F163A, D166E, I167P
B3: L1SSB C7:PaSSB (protein)
chain: B1 chain
B4: L1SSB C8:EcSSB (protein)
chain: MINNVVLVGRITRDPELRYTPQNQAVATFSLAVNRQFKNANGEREADFINCVIWRQQAENLANWAKKGALIGVTGRIQTRNYENQQGQRVYVTEVVADSFQMLESRSARDGMGGGASAGSYSAPSQSTNNTPRPQTNNNSATPNFGRDADPFGSSPMEMEDFDDDIPF
B5: L1SSB C8:PaSSB (protein)
chain: B4 chain with D161S
B6: L1SSB C8:MsSSB (protein)
chain: B4 chain with D161G, F162A, D165E, I166P
B7: SR041: SSAP candidate (protein)
chain: MAKIKLTNVRIAFINNLRTPAEFEAGDGKFRYSATFLVEKGSANDKAIEAAIKSVAVEGWAKKADAMLESFRSNSNKFCYQNGDLKDFDGFEGNMYIAAHRKRDDGRPLLLDNVADPETGKPARLVDANGEWLAGKEGRIYAGCYVNATIDIYAQTKTNPGIRCGLMGVQYHGPGDSFSGASRANEDDFEATAPETEDELD
modifications: Burkholderia phage BcepC6B
notes: SSAP candidate
B8: SR081: SSAP candidate (protein)
chain: MSKEFYARLAAIQENLNAPKNQYNSFGKYKYRSCEDILEGVKPLLNGLFLSISDEVVLIGDRYYVKATATITDGENSHTATALAREEESKKGMDSAQVTGATSSYARKYCLNGLFGIDDAKDADTDEHKHQQNAAAKQSNPSPTPEQVLKAFTDAAMQKNTVEELKQAFAKAWKMLEGTPEQHKAQDVYNIRRDELEGAAA
modifications: Bacteriophage HK022
notes: SSAP candidate
B9: SR033: SSAP candidate (protein)
chain: MADYEEQMLALQKPLQPDRVVWRVQQSGFSKQGKPWAMVLAYMDNRAVQERFDEVFGIAGWKNEFKTAPDGGTLCGISVKFGDEWVTKWDGAENTQVEAVKGGLSGSMKRAAVQWGVGRYLYDLPTSFAQTSLEKTDGWNKVFDKNSKKNFWWKNPQLPSWALPQNSKVQNTKADFTEEEIPNPPKLYVVGKDKKEFDEKKLQAVVNKMAIIAGKDYGASVDEQNDWLKMPLDEAYNDIEKFVDIKKEEQND
modifications: Lactococcus phage bIL286,Lactococcus lactis subsp lactis (strain IL1403) (Streptococcuslactis)
notes: SSAP candidate
B10: PF003: SSAP candidate (protein)
chain: MAENEKQALLQEENKSENVVSTVKRTALATNPFSDTDQFNNIFKMAQLISQSDMIPATYKGKPMNCVIALEQANRMGVSPLMVMQNLYVVKGVPSWSGQGCMMIIQGCGKFRDVDYVYSGEKGTDSRSCKVVATRISDGKRIEGTEITMQMVKSEGWISNTKWKNMPEQMLGYRAATFFARMYCPNELNGFATEGEAEDMNHKPQRIEAINVLGDTAHE
modifications: Clostridium sp FS41
notes: SSAP candidate
B11: LlMutL.E33K: L. lactis MutL carrying the equivalent dominant negative mutation, SEQ ID NO: 513 (protein)
chain: MGKIIELNEALANQIAAGEVVERPASVVKELVKNSIDAGSSKIIINVEEAGLRLIEVIDNGLGLEKEDVALALRRHATSKIKDSADLFRIRTLGFRGEALPSIASVSQMTIETSNAQEEAGTKLIAKGGTIETLEPLAKRLGTKISVANLFYNTPARLKYIKSLQAELSHITDIINRLSLAHPEISFTLVNEGKEFLKTAGNGDLRQVIAAIYGIGTAKKMREINGSDLDFELTGYVSLPELTRANRNYITILINGRFIKNFLLNRAILEGYGNRLMVGRFPFAVLSIKIDPKLADVNVHPTKQEVRLSKERELMTLISKAIDETLSEGVLIPEALENLQGRAKEKGTVSVQTELPLQNNPLYYDNVRQDFFVREEAIFEINKNDNSDSLTEQNSTDYTVNQPETGSVSEKITDRTVESSNEFTDRTPKNSVSNFGVDFDNIEKLSQQSTFPQLEYLAQLHATYLLCQSKEGLYLVDQHAAQERIKYEYWKDKIGEVSMEQQILLAPYLFTLPKNDFIVLAEKKDLLHEAGVFLEEYGENQFILREHPIWLKETEIEKSINEMIDIILSSKEFSLKKYRHDLAAMVACKSSIKANHPLDAESARALLRELSTCKNPYSCAHGRPTIVHFSGDDIQKMFRRIQETHRSKAASWKDFE
B12: SR024: SSAP candidate (protein)
chain: MAIDNQSTKVITGKVRLSYTHVFEPQENDSGDMKYSTAILIPKSDKETLRKIKAAVDAAKELGKSKWGGKIPANCKTPLRDGDEERPDDEAYAGHYFLNASSKNKPGVAKPIGKDGNGKTKFQEITDSTEVYSGCYAKVSLNFYPFDAKGNRGVAAGLNNIVKVQDGDFLGGRSSVNDDFANEDFDDIVDISDDDDFLN
modifications: Paenibacillus lactis 154
notes: SSAP candidate
B13: MutL.E32K from E. coli: dominant negative mismatch repair protein, SEQ ID NO: 515 (protein)
chain: MPIQVLPPQLANQIAAGEVVERPASVVKELVKNSLDAGATRIDIDIERGGAKLIRIRDNGCGIKKDELALALARHATSKIASLDDLEAIISLGFRGEALASISSVSRLTLTSRTAEQQEAWQAYAEGRDMNVTVKPAAHPVGTTLEVLDLFYNTPARRKFLRTEKTEFNHIDEIIRRIALARFDVTINLSHNGKIVRQYRAVPEGGQKERRLGAICGTAFLEQALAIEWQHGDLTLRGWVADPNHTTPALAEIQYCYVNGRMMRDRLINHAIRQACEDKLGADQQPAFVLYLEIDPHQVDVNVHPAKHEVRFHQSRLVHDFIYQGVLSVLQQQLETPLPLDDEPQPAPRSIPENRVAAGRNHFAEPAAREPVAPRYTPAPASGSRPAAPWPNAQPGYQKQQGEVYRQLLQTPAPMQKLKAPEPQEPALAANSQSFGRVLTIVHSDCALLERDGNISLLSLPVAERWLRQAQLTPGEAPVCAQPLLIPLRLKVSAEEKSALEKAQSALAELGIDFQSDAQHVTIRAVPLPLRQQNLQILIPELIGYLAKQSVFEPGNIAQWIARNLMSEHAQWSMAQAITLLADVERLCPQLVKTPPGGLLQSVDLHPAIKALKDE

Columns and labels:
[1] = tested on: L. lactis; experiment: Allelic recombination frequency, selective vs non-selective plates; assay type: cell-based, Lactococcus lactis; conditions: for Genome editing efficiency lower than Redβ with EcSSB: co-expressed with Redβ; for Editing efficiency with chimeric SSB: co-expressed with the RecT; for Function of dominant negative MutL: co-expressed with PapRecT and PaSSB
Protocol: Four variants known to enable high genome editing efficiency were selected (Redβ and PapRecT in E. coli, LrpRecT in L. lactis, and MspRecT in M. smegmatis), and tested codon optimized versions of all four in both E. coli (gram-negative), and L. lactis (gram-positive). Genome editing efficiency was measured by introducing oligos encoding known antibiotic resistance mutations, and compared the antibiotic resistant cell counts to the total number of viable cells in the population (FIGS. 17E-17F). […] In L. lactis, LrpRecT was the only functional homolog, and improved oligo incorporation 7,700-fold, while the three other RecT variants were nearly non-functional, improving oligo incorporation less than 7-fold (FIG. 17H). No RecT protein functioned well both in E. coli and L. lactis.
A single colony of L. lactis was grown overnight to saturation. 500 μL of dense culture was inoculated into 5 mL of fresh media, supplemented with 500 mM sucrose and 2.5% (w/v) glycine, and grown for 3 hours. To induce gene expression of the pJP005 vector for recombineering experiments, the cells were grown for an additional 30 min after adding 1 ng/mL freshly diluted nisin, unless stated otherwise. For the optimized condition (FIG. 20B), 10 ng/mL nisin was used. Cells were pelleted at 4° C. by centrifugation at 5,000×g for 5 minutes and washed twice with 2 mL of ice-cold electroporation buffer (500 mM sucrose containing 10% (w/v) glycerol) by centrifugation at 13,200×g for 2.5 minutes. Cells were resuspended in 80 μL ice-cold electroporation buffer containing DNA and transferred to a pre-chilled 0.1 cm electroporation cuvette.
Electrocompetent cells were electroporated with 90-mer oligos at: 1 uM for E. coli, 50 μg for L. lactis, and 10 uM for C. crescentus. 70-mer oligos were used at 1 μg for M. smegmatis. All oligos were obtained from IDT and can be found under “Oligonucleotides for genome editing” in materials and methods. For dsDNA experiments L. lactis was electroporated with 1.5 μg purified linear dsDNA. Cells were electroporated using a Bio-Rad gene pulser set to 25 μF, 200 S2, and 1.8 kV for E. coli, 2.0 kV for L. lactis, and 1.5 kV for C. crescentus and to 1000Ω and 2.5 kV for M. smegmatis. Immediately after electroporation, cells were recovered in fresh media for 3 hours for E. coli, 1 hour for L. lactis, overnight for M. smegmatis and overnight for C. crescentus. L. lactis recovery media was supplemented with MgCl2 and CaCl2) at a concentration of 20 mM and 2 mM, respectively. E. coli recovery media was supplemented with carbenicillin. M. smegmatis recovery media was supplemented with hygromycin. C. crescentus recovery media was supplemented with 0.3% xylose and kanamycin. After recovery, the cells were serial diluted and plated on non-selective vs. selective agar plates to obtain approximately 50-500 CFU/plate. Colonies were counted using a custom script in Fiji, and allelic recombination frequency was calculated by dividing the number of colonies on selective plates, with the number of colonies on non-selective plates.

[2] = tested on: Staphylococcus aureus; experiment: SSAP candidate enrichment; assay type: cell-based
Protocol: The editing efficiency of SSAP candidates was also tested in Agrobacterium tumefaciens and in Staphylococcus aureus using the methods described above.

| Molecule | Editing efficiency with chimeric SSB [1] | Editing efficiency (enrichment) relative to other SSAP candidates [2] | further results |
| --- | --- | --- | --- |
| B1 |  |  | Genome editing efficiency lower than Redβ with EcSSB [1]: ≤ 5.9 fold |
| B2 | completely recovered |  |  |
| B3 | completely recovered |  |  |
| B4 |  |  | Genome editing efficiency lower than Redβ with EcSSB [1]: ≤ 2.6 fold |
| B5 | completely recovered |  |  |
| B6 | completely recovered |  |  |
| B7 |  | increase in editing efficiency |  |
| B8 |  | increase in editing efficiency |  |
| B9 |  | increase in editing efficiency |  |
| B10 |  | increase in editing efficiency |  |
| B11 |  |  | Function of dominant negative MutL [1]: enabled the efficient introduction of 1 bp pair changes |
| B12 |  | increase in editing efficiency |  |
| B13 |  |  | Function of dominant negative MutL [1]: nonfunctional |
